In patent publication US9777056B2, “Immunotherapy for clearing pathological tau conformers” (New York University, priority 2006, dated 2017):

Test: Thioflavin T (ThT) in vitro fibrillogenesis assay
Assay type: physicochemical
Conditions: 0.1 M Tris pH 7.4, incubated for different times
Experimental: ThT binds specifically to β-sheet structure and this binding produces a shift in its emission spectrum and a fluorescent enhancement proportional to the amount of amyloid formed. Following the incubation period, 50 mM glycine, pH 9.2, and 2 μM ThT was added to a final volume of 200 μl containing 3 μg of the immunogen or the P301L tau peptide (with or without equimolar concentration of antibodies purified from the immunized mice). Fluorescence was measured at excitation 435 nm and emission 485 nm on a SpectraMax M2 multi-detection plate reader (Molecular Devices, Sunnyvale, Calif.).

Aβ1-42: amyloid-β control peptide used for comparison in ThT and MTT assays
fibril formation (fibrillogenicity), Thioflavin T fluorescence: very fibrillogenic
